Holding throughout (conditions): protein: recombinant; intramolecular parallel G4, K+
Data set [1] deals with T1, HMGB1 A box (termed HMGB1) (UniProt P09429 9-78).
T1 sequence: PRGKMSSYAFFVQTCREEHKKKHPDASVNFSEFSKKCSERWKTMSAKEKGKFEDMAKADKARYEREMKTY
Put plainly: ITC; K+; K+-containing buffer; 20 or 200 mM K+ in Fig S9 titrations (10 uM HMGB1); full buffer, pH and temperature of binding assays not in material (phase-separation assays: 10 mM HEPES pH 7.4, 20 mM K+, 10% PEG8K). (In ITC the heat of successive injections is recorded.)

For data set [2], the target named is T1, HMGB1 A box (termed HMGB1). Put plainly: fluorescence titration; 20 mM K+; K+-containing buffer; 20 or 200 mM K+ in Fig S9 titrations (10 uM HMGB1); full buffer, pH and temperature of binding assays not in material (phase-separation assays: 10 mM HEPES pH 7.4, 20 mM K+, 10% PEG8K).
Data set [3] concerns the target T1, HMGB1 A box (termed HMGB1). Put plainly: fluorescence titration; 200 mM K+; K+-containing buffer; 20 or 200 mM K+ in Fig S9 titrations (10 uM HMGB1); full buffer, pH and temperature of binding assays not in material (phase-separation assays: 10 mM HEPES pH 7.4, 20 mM K+, 10% PEG8K).
The target in data set [4] is T1, HMGB1 A box (termed HMGB1). The data set is described as follows: fluorescence titration (intrinsic HMGB1 fluorescence, 335 nm); K+; K+-containing buffer; 20 or 200 mM K+ in Fig S9 titrations (10 uM HMGB1); full buffer, pH and temperature of binding assays not in material (phase-separation assays: 10 mM HEPES pH 7.4, 20 mM K+, 10% PEG8K).

On to AGGGCGGTGTGGGAAGAGGGAA (structured_DNA) [22R (GQKRAS)], for which the Kd came to 7.04 µM in data set [1], 3.24 µM in data set [2], 4.24 µM in data set [3] and 4.08 µM in data set [4].

The term Kd denotes the concentration at which binding is half-saturated.

The values are drawn from publication PMC10783520, “Mutual promotion of co-condensation of KRAS G-quadruplex and a well-folded protein HMGB1”.
